This assay deals with Pep1/Pep2. Kind of assay: ELISA, coated peptide.

B1: antibody 617 (antibody, V domains shown)
VH: QVQLQLPGAELVKPGASVKVSCKASAYTFTSYWMHWVKQRPGQGLEWIGRIHPSDSDTNYNQNFKGKATLTVDKSSNTAYMQLSSLTSEDSAVYYCATGFSFWGQGTLVTVSA
VL: DIVMTQSHKFMSTSVGDRVSITCKASQDVSTTVAWYQQKPGQSPKLLIYSASYRYTGVPDRFTGSGSGTDFTFTISSVQAEDLAVYYCQQHYSTRPTFGGGTKLEIK
B1 showed an ELISA O.D. of 0.102 O.D.

B2: antibody 616 (antibody, V domains shown)
VH: QIHLVQSGPELKKPGETVRISCKASGYTFTTYGMSWVKQAPGKALKWMGWINTYSGVPTYADDFKGRFAFSLETSASTAYLQINNLKNEDTATYFCTREGSTMVTRYYFDYWGQGTTLTVSS
VL: DIVMTQAAPSVPVTPGESVSISCRSSKSLLHSNGNTYLYWFLQRPGQSPQLLIYRMSNLASGVPDRFSGSGSGTAFTLRISRVEAEDVGVYHCMQHLESPYTFGGGTTLEIK
Molecule B2 gave an ELISA O.D. of 0.069 O.D.

B3: antibody 623 (antibody, V domains shown)
VH: QIQLVQSGPELKKPGETVKISCKASGYTFTTYGMSWVKQAPGKGLKWMGWINTYSGVPTYADDFKGRFAFSLETSASTAYLQINNLKNEDTATFFCAREGSTMVTRYYFDYWGQGTTLTVSS
VL: DIVMTQAAPSVPVTPGESVSISCRSSKSLLHSNGNTYLYWFLQRPGQSPQLLIYRMSNLASGVPDRFSGSGSGTAFTLRISRVEAEDVGVYYCMQHLEYPSTFGGGTKLEIK
The molecule B3 yielded an ELISA O.D. of 0.098 O.D.

B4: antibody 619 (antibody, V domains shown)
VH: QIQLVQSGPELKKPGETVKISCKASGYTFTTYGMSWVKQAPGKGLKWMGWINTYSGVPTYADDFKGRFAFSLETSASTAYLQINNLKNEDTATYFCAREGSTMVTRYYFDYWGQGTTLTVSS
VL: DIVMTQAAPSVPVTPGESVSISCRSSKSLLHSNGNTYLYWFLQRPGQSPQVLIYRMSNLASGVPDRFSGSGSGTAFTLRISRVEAEDVGVYYCMQHLESPYTFGGGTKLEIK
B4 registered an ELISA O.D. of 0.064 O.D.

Values taken from US20190100588A1.
